The target of one data set is T1, mStau2 dsRBD1-2 F40A (Mus musculus, UniProt Q8CJ67 8-181, F40A).
T1 sequence: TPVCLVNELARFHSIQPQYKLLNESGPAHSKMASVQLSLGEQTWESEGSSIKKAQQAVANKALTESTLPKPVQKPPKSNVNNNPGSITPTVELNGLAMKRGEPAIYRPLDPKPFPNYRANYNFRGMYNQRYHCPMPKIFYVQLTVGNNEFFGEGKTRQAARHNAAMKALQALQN
As to the kind of experiment: SPR; Hill n 1; SPR: HBS-EP (10 mM HEPES pH 7.4, 150 mM NaCl, 3 mM EDTA, 0.005% P20); EMSA: 5 nM RNA, protein buffer (40 mM Bis-Tris pH 7, 150 mM NaCl, 2 mM DTT presumed), 4% glycerol, 30 ug/mL yeast tRNA, RT; NMR: 150 mM NaCl, 20 mM Na phosphate pH 7.0, 5 mM DTT, 298 K. As to conditions: protein: recombinant; label: 5' 32P (EMSA); biotin (SPR); imperfect hairpin, 26 bp with two bulges. A general note: In SPR one partner is held on a chip, and binding of the other changes the refractive index at the surface.

For the next data set, the target named is T2, mStau2 full-length (Mus musculus, UniProt Q8CJ67 1-570).
T2 sequence: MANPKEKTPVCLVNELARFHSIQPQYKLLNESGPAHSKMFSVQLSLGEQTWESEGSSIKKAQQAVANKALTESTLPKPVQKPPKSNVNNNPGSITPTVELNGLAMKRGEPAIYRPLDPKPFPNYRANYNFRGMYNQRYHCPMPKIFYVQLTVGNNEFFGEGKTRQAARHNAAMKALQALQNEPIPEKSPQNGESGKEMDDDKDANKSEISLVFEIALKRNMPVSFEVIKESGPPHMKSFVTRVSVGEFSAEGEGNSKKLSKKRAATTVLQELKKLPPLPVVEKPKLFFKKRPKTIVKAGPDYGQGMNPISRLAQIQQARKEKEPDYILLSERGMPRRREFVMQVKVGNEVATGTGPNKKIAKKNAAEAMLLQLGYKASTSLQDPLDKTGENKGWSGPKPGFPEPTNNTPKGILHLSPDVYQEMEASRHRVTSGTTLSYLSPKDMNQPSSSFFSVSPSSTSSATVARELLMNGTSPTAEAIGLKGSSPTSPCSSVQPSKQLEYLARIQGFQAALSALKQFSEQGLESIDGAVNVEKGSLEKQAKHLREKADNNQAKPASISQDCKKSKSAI
Description: EMSA; stated as 100 nM range; SPR: HBS-EP (10 mM HEPES pH 7.4, 150 mM NaCl, 3 mM EDTA, 0.005% P20); EMSA: 5 nM RNA, protein buffer (40 mM Bis-Tris pH 7, 150 mM NaCl, 2 mM DTT presumed), 4% glycerol, 30 ug/mL yeast tRNA, RT; NMR: 150 mM NaCl, 20 mM Na phosphate pH 7.0, 5 mM DTT, 298 K. Particulars: protein: recombinant; tags: HisSUMO; label: 5' 32P (EMSA); biotin (SPR); imperfect hairpin, 26 bp with two bulges. On the technique in general: Mobility shift assays separate free from complexed probe on a gel.

Another data set deals with T3, mStau2 dsRBD1 (Mus musculus, UniProt Q8CJ67 8-75).
T3 sequence: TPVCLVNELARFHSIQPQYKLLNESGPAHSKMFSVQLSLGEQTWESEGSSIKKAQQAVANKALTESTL
Description: SPR; up to 1 uM; SPR: HBS-EP (10 mM HEPES pH 7.4, 150 mM NaCl, 3 mM EDTA, 0.005% P20); EMSA: 5 nM RNA, protein buffer (40 mM Bis-Tris pH 7, 150 mM NaCl, 2 mM DTT presumed), 4% glycerol, 30 ug/mL yeast tRNA, RT; NMR: 150 mM NaCl, 20 mM Na phosphate pH 7.0, 5 mM DTT, 298 K. As to conditions: protein: recombinant; label: 5' 32P (EMSA); biotin (SPR); imperfect hairpin, 26 bp with two bulges.

The target of another data set is T4, mStau2 dsRBD2 (Mus musculus, UniProt Q8CJ67 95-181).
T4 sequence: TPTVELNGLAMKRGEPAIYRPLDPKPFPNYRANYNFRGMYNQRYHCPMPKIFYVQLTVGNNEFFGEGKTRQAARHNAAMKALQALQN
Description: SPR; Hill n 1.1; text says 829 nM; SPR: HBS-EP (10 mM HEPES pH 7.4, 150 mM NaCl, 3 mM EDTA, 0.005% P20); EMSA: 5 nM RNA, protein buffer (40 mM Bis-Tris pH 7, 150 mM NaCl, 2 mM DTT presumed), 4% glycerol, 30 ug/mL yeast tRNA, RT; NMR: 150 mM NaCl, 20 mM Na phosphate pH 7.0, 5 mM DTT, 298 K. Particulars: protein: recombinant; label: 5' 32P (EMSA); biotin (SPR); imperfect hairpin, 26 bp with two bulges.

A further data set has as its target T5, mStau2 dsRBD1-2 E15A (Mus musculus, UniProt Q8CJ67 8-181, E15A).
T5 sequence: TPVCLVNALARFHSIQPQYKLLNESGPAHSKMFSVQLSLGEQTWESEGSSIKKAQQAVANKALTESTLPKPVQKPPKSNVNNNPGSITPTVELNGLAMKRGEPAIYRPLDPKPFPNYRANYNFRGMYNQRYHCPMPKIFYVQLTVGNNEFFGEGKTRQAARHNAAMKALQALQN
Description: SPR; Hill n 1; SPR: HBS-EP (10 mM HEPES pH 7.4, 150 mM NaCl, 3 mM EDTA, 0.005% P20); EMSA: 5 nM RNA, protein buffer (40 mM Bis-Tris pH 7, 150 mM NaCl, 2 mM DTT presumed), 4% glycerol, 30 ug/mL yeast tRNA, RT; NMR: 150 mM NaCl, 20 mM Na phosphate pH 7.0, 5 mM DTT, 298 K. Particulars: protein: recombinant; label: 5' 32P (EMSA); biotin (SPR); hairpin, 18 bp stem.

For another data set, the target named is T6, mStau2 dsRBD1-2 H36A (Mus musculus, UniProt Q8CJ67 8-181, H36A).
T6 sequence: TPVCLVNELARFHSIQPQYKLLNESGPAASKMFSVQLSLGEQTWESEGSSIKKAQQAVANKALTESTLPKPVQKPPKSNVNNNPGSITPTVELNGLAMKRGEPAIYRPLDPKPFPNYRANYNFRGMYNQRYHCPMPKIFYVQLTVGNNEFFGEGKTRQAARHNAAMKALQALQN
The data set is described as above. As to conditions: protein: recombinant; label: 5' 32P (EMSA); biotin (SPR); hairpin, 18 bp stem.

B1: SRS* (SRS3) (structured_RNA)
RNA: GGUAUGUGUGAAUGUGCAUGAAUAUAUAUAUAUAUGCAUAUAUAUAUUUGUAUAUGUUCACACAUG
The Kd is the equilibrium constant for the complex coming apart. Take B1: the Kd is 769 ± 427 nM with mStau2 dsRBD1-2 F40A, around 100 nM with mStau2 full-length and 828 ± 29 nM in the data set with mStau2 dsRBD2. For the same molecule, in the data set with mStau2 dsRBD1, the binding result is listed as “no binding”.

Regarding GGUAUAUACAUGCACAUGCAAUUUGUGUAUGUGUAUGUAUAUA (structured_RNA) [SRS2+5], the Kd was 132 ± 31 nM with mStau2 dsRBD1-2 E15A and 701 ± 386 nM with mStau2 dsRBD1-2 H36A.

(Values after paper PMC6477676, “Staufen2-mediated RNA recognition and localization requires combinatorial action of multiple domains”.)
